# From US7834144B2 (priority 2005, dated 2010)
# “And” between values parts separate entries of the source, which are not always exact repeats. Identical values can stand only once. Like-named read-outs stand apart in the source and are kept apart here. Where no end group is shown, it is not given here. [ ]: non-standard residue; d: D form. Nab = not defined here; Nbn = not defined here
# How the values were obtained:
# [1] = target: T1, PrP^Sc (Homo sapiens, UniProt P04156); details: vCJD 10 nL BH/asy; C17 capture, C2-AP detection
# [2] = target: T1, PrP^Sc; details: folded PrP^Sc pulled down by XIIb
# [3] = target: T1, PrP^Sc
# [4] = target: T2, PrPc (Homo sapiens, UniProt P04156); details: Table 16
# [5] = target: T2, PrPc; format: binding
# [6] = target: T2, PrPc; details: Table 15
# [7] = target: T1, PrP^Sc; format: binding
# [8] = target: T2, PrPc; details: for LU, Pulldown, PrPC / pg, Pulldown, PrPC: 3M GdnSCN; for pg, Pulldown, PrPC: rPrP standard curve
# [9] = H3PO4 (50 μl) 0.00007M, pH 4, NaOH (25 μl) 0.0031N
# [10] = H3PO4 (50 μl) 0.00075M, pH 3, NaOH (25 μl) 0.031N
# [11] = H3PO4 (50 μl) 0.12M, pH 2, NaOH (25 μl) 0.31N
# [12] = H3PO4 (50 μl) 0.5M, pH 1, NaOH (25 μl) 3.1N
# [13] = NaOH (50 μl) 0.0001M, pH 10, NaH2PO4 (20 μl) 0.0003M
# [14] = NaOH (50 μl) 0.001M, pH 11, NaH2PO4 (20 μl) 0.003M
# [15] = NaOH (50 μl) 0.1M, pH 12, NaH2PO4 (20 μl) 0.03M
# [16] = NaOH (50 μl) 0.1M, pH 13, NaH2PO4 (20 μl) 0.3M
# [17] = Table 7, covalently bound to magnetic beads, 70% human plasma
# [18] = 70 ul plasma (70%) + 50 nl 10% normal BH
substance,measurement,setting,value
"Peptoid Reagent XIIb: peptoid reagent comprising SEQ ID NO: 240, Nab-Nab-Nab-Nbn-Nab-Nbn, covalently bound to magnetic beads ([Nab][Nab][Nab][Nbn][Nab][Nbn]; reading uncertain; also: covalently bound to magnetic beads, printed as Nab-Nab-Nab-Nbn-Nab-Nbn)","Avg LU, C17 Beads",[1],41.86 LU
same,GdnHCl1/2 (GdnHCl concentration at half-maximal denaturation),[2]; sCJD brain homogenate,2.0 M
same,GdnHCl1/2 (GdnHCl concentration at half-maximal denaturation),[2]; vCJD brain homogenate,1.6 M
same,"Avg LU, 3F4 Plate",[3]; vCJD 0 nL BH/asy (background),4.55 LU
same,"Avg LU, C17 Plate",[3]; vCJD 0 nL BH/asy (background),45.56 LU
same,"S/N, 3F4 Plate",[3]; vCJD 0 nL BH/asy (background),1.0
same,"S/N, C17 Plate",[3]; vCJD 0 nL BH/asy (background),1.0
same,"Avg LU, 3F4 Plate",[3]; vCJD 1 nL BH/asy,8.90 LU
same,"Avg LU, C17 Plate",[3]; vCJD 1 nL BH/asy,50.75 LU
same,"S/N, 3F4 Plate",[3]; vCJD 1 nL BH/asy,2.0
same,"S/N, C17 Plate",[3]; vCJD 1 nL BH/asy,1.1
same,"Avg LU, 3F4 Plate",[3]; vCJD 5 nL BH/asy,19.34 LU
same,"Avg LU, C17 Plate",[3]; vCJD 5 nL BH/asy,74.71 LU
same,"S/N, 3F4 Plate",[3]; vCJD 5 nL BH/asy,4.3
same,"S/N, C17 Plate",[3]; vCJD 5 nL BH/asy,1.6
same,"S/N, 3F4 Plate",[3]; vCJD 10 nL BH/asy,13.2
same,"S/N, C17 Plate",[3]; vCJD 10 nL BH/asy,2.7
same,"Avg LU, 3F4 Plate","[3]; vCJD 10 nL BH/asy, 3F4 capture, C2-AP detection",60.07 LU
same,"Avg LU, C17 Plate","[3]; vCJD 10 nL BH/asy, C17 capture, C2-AP detection",124.18 LU
same,AVE Plasma,"[4]; 50 μl GdnSCN 3M, pH 5.9, 50 μl NaHCO3, final pH 8.5",5.5
same,AVE Plasma,"[4]; 100 μl TBST, pH 7.5",2.2
same,AVE Plasma,[4]; [9],8.7
same,AVE Plasma,[4]; [10],19.9
same,AVE Plasma,[4]; [11],8.0
same,AVE Plasma,[4]; [12],11.9
same,AVE Plasma,[4]; [13],3.1
same,AVE Plasma,[4]; [14],3.6
same,AVE Plasma,[4]; [15],5.1
same,AVE Plasma,[4]; [16],5.2
same,Mean binding,"[5]; Table 10, 15 nL 10% normal human brain homogenate, 70% human plasma, covalently attached to beads",13.2
same,Mean binding,"[5]; Table 11, TBSTT with 70% Human Plasma",269.5
same,Mean binding,"[5]; Table 11, TBSTT with 70% Human Plasma containing 20 nL 10% normal human brain homogenate",306.4
same,AVE Plasma,"[6]; 15 μl GdnSCN 3M, pH 5.9, 210 μl H20, final pH 6.0",37.7
same,AVE Plasma,"[6]; 70 μl TBST, pH 7.5",11.8
same,AVE Plasma,[6]; [9],26.8
same,AVE Plasma,[6]; [10],25.8
same,AVE Plasma,[6]; [11],92.7
same,AVE Plasma,[6]; [12],30.4
same,AVE Plasma,[6]; [13],197.6
same,AVE Plasma,[6]; [14],14.6
same,AVE Plasma,[6]; [15],16.1
same,AVE Plasma,[6]; [16],15.1
same,Mean,[7]; [17],174.3
same,Mean (% of 68),[7]; [17],126.4%
same,Mean binding,"[7]; Table 10, 0.833 nL human vCJD 10% brain homogenate, 70% human plasma, covalently attached to beads",49.2
same,Mean binding,"[7]; Table 10, 2.5 nL human vCJD 10% brain homogenate, 70% human plasma, covalently attached to beads",57.3
same,Mean binding,"[7]; Table 10, 7.5 nL human vCJD 10% brain homogenate, 70% human plasma, covalently attached to beads",121.1
same,Mean binding,"[7]; Table 11, TBSTT with 70% Human Plasma containing 20 nL 10% human CJD brain homogenate",1390.8
same,Mean (% of Control),"[7]; Table 13, Control Human Plasma",100.0%
same,Mean (% of Control),"[7]; Table 13, Human Plasma lot KC011886",132.78%
same,Mean (% of Control),"[7]; Table 13, Human Plasma lot KC011892",127.51%
same,Mean (% of Control),"[7]; Table 13, Human Plasma lot KC28719",126.03%
same,Mean (% of Control),"[7]; Table 13, Human Plasma lot KC032907",125.02%
same,Mean,"[7]; Table 13, bound directly to magnetic beads, Control Human Plasma",154.99
same,Mean,"[7]; Table 13, bound directly to magnetic beads, Human Plasma lot KC011886",205.80
same,Mean,"[7]; Table 13, bound directly to magnetic beads, Human Plasma lot KC011892",197.63
same,Mean,"[7]; Table 13, bound directly to magnetic beads, Human Plasma lot KC28719",195.33
same,Mean,"[7]; Table 13, bound directly to magnetic beads, Human Plasma lot KC032907",193.77
same,"LU, Pulldown, PrPC",[8]; [18],25.6 LU
same,"pg, Pulldown, PrPC",[8]; [18],7.3 pg
same,"LU, Pulldown, PrPC",[8]; 70 ul plasma (70%),23 LU and 23.3 LU
same,"pg, Pulldown, PrPC",[8]; 70 ul plasma (70%),6.0 pg
same,PrP^C bound by peptoid,[8]; plasma containing about 488 pg of PrP^C,7 pg
